Assay results reported in the RNAGym collection of RNA variant scans (doi:10.1073/pnas.2313332121).

B1: TPR t1 (parent)
chain: GACCAAUCUGCCCUCAGAGCUCGAGAACAUCUUCGGAUGCAGAGGAGGCAGGCUUCGGUGGCGCGAUAGCGCCAACGUCCUCAACCUCCAAUGCAUCCCACCACAUGAUGAUGCCUGAAGAGCCUUGGUUUUUUG

Variants of: B1
Experiment: polymerase ribozyme fitness, log enrichment relative to wild type (log ratio); higher = more active; in vitro selection for triplet polymerase activity
Method in brief: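 Only genotypes with ≥10 input reads and ≥1 read per output were kept after Illumina sequencing of input and output libraries. These libraries were PCR-built, transcribed mutants of each subunit of a heterodimeric triplet polymerase ribozyme, each put through one triplicate in vitro selection round with frozen incubation at −7 °C, gel excision of extended constructs, streptavidin-bead capture and RT-PCR. Fitness is a logarithmic ratio of genotype enrichment to wild-type enrichment, from inverse-variance-weighted replicate averages, with the logarithm in base 2.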

Variant | polymerase ribozyme fitness (log ratio)
GACCAAUCUGCCCUUAGAGCUCGAGAACAUCUUCGGAUGCAGAGGAGGCAGGCUUCGGUGGCGUGAUAGCGCCAACGUCCUCAACCUCCAAUGCAUCCCACCACAUGAUGAUGCCUGAAGAGCCUUGGUUUUUUG [C15U C64U] | -1.59
GACCAAUCUGCCCUUAGAGCUCGAGAACAUCUUCGGAUGCAGAGGAGGCAGGCUUCGGUGGCGCGAUAGCGCCAAGGUCCUCAACCUCCAAUGCAUCCCACCACAUGAUGAUGCCUGAAGAGCCUUGGUUUUUUG [C15U C76G] | -1.31
GACCAAUCUGCCCUUAGAGCUCGAGAACAUCUUCGGAUGCAGAGGAGGCAGGCUUCGGUGGCGUGAUAGCGCCAACGUCCUCAACCUCCAAUGCAUCCCACCACAUGAUGAUGCCUUAAAAGCCUUGGUUUUUUG [C15U C64U G117U G120A] | -1.73
GACCAAUCUGCCCUUAGAGCUCGAGAACAUCUUCGGAUGCAGAGGAGGCAGGCUUCGGUGGCGCGAUAGCGCCAACGUCCUCAACCUCCAAUGCAUCCCACCACAUGAUGAUGUCUGAAGAGCCUUGGUUUUUUG [C15U C114U] | -2.91
GACCAAUCUGCCCUUAGAGCUCGAGAACAUCUUCGGAUGCAGAGGAGGCAGGCUUCGGUGGCGCGAUAGGGCCAACGUCCUCAACCUCCAAUGCAUUCCACCACAUGAUGAUGCCUGAAGAGCCUUGGUUUUUUG [C15U C70G C97U] | -3.09
GACCAAUCUGCCCUUAGAGCUCGAGAACAUCUUCGGAUGCAGAGGAGGCAGGCUUGGGUGGCGCGAUAGCGCCAACGUCCUCAACCUCCAAUGCAUCCCACCACAUGAUGAUGCCUGAAGAGCCUUGGUUUUUUG [C15U C56G] | -2.76
GACCAAUCUGCCCUUAGAGCUCGAGAACAUCUUCGGAUGCAGAGGAGGCAGGCUUAGGUGGCGCGAUAGCGCCAACGUCCUCAACCUCCAAUGCAUCCCACCACAUGAUGAUGCCUGAAGAGCCUUGGUUUUUUG [C15U C56A] | -1.78
GACCAAUCUGCCCUUAGAGCUCGAGAACAUCUUAGGAUGCAGAGGAGGCAGGCUUCGGUGGCGCGAUAGCGCCAACGUCCUCAACCUCCAAUGCAUCCCACCACAUGAUGAUGCCUGAAGAGUCUUGGUUUUUUG [C15U C34A C123U] | -3.01
GACCAAUCUGCCCUUAGAGCUCGAGAACAUCUUCGGAUGCAGAGGAGGCAGGCUUCGGUGGCGCGAUAGCGUCAACGUCCUCAACCUCCAAUGCAUCCCACCACAUGAUCAUGCCUGAAGAGCCUUGGUUUUUUG [C15U C72U G110C] | -5.35
GACCAAUCUGCCCUUAGAGCUCGAGAACAUCUUCGGAUGCAGAGGAGGCAGGUUUCGGUGGCGCGAUAGCGCCAACGUCCUCAACCUCCAAUGCAUUCCACCACAUGAUGAUGCCUGAAGAGCCUUGGUUUUUUG [C15U C53U C97U] | -1.96
GACCAAUCUGCCCUUAGAGCUCGAGAACAUCUUCGGAUGCAGAGGAGGAAGGCUUCGGUGGUGCGAUAGCGCCAACGUCCUCAACCUCCAAUGCAUCCCACCACAUGAUGAUGCCAGAAGCGCCUUGGUUGUUUG [C15U C49A C62U U116A A121C U131G] | -3.93
GACCAAUCUGCCCUUAGAGCUCGAGAACAUCUUCGGAUGCAGAGGAGGCAGGCUUCGGUGGCGCGAUAGCGCCAACGUCCUCAACCUCCAAUGCAUCCUACCACAUGAUGAUGCCUGAAGAGCCUUGGUUUUUUG [C15U C99U] | -3.99
GACCAAUCUGCCCUUAGAGCUCGAGAACAUCUUCGGAUGCAGAGGAGGCAGGUUUCGGUGGCGCGAUAUCGCCAACGUCCUCAACCUCCAAUGCAUCCCACCACAUGAUGAUGCCUGAAGAGCCUUGGUUUUUUG [C15U C53U G69U] | -0.102
GACCAAUCUGCCCUUAGAGCUCGAGAACAUCUUCGGAUGCAGAGGAGGCAGGCUUCGGUGGCGCGAUAGCGGCAACGUCCUCAACCUCCAAUGCAUCCCUCCACAUGAUGAUGCCUGAAGAGCCUUGGUAUUUUG [C15U C72G A100U U130A] | -2.29
GACCAAUCUGCCCUUAGAGCUCGAGAACAUCUUUGGAUGCAGAGGAGGCAGGCUUCGGUGGCGCGAUAGCGCCAACGUCCUCAACCUCCAAUGCAUCCCACCACAUGAUGAUGCCUGAAGAGCCUUGGUUUUUUG [C15U C34U] | -4.93
GACCAAUCUGCCCUUAGAGCUCGAGAACAUCUUCGGAUGCAGAGGAGGCAGGCUUCGGUGGCGCGAUAGCGACAACGUCCUCAAGCUCCAAUGCAUCCCACAACAUGAUGAUGCCUGAAGAGCCUUGGUUUUUUG [C15U C72A C85G C102A] | -3.1
GACCAAUCUGCCCUUAGAGCUCGAGAACAUCUUCGGAUGCAGAGGAGGAAGGCUUCGGUGGCGCGAUAGCGCCAACGUCCUCAACCUCCAACGCAUCCCACCACAAGAUGAUGCCUGAAGAGCCUUGGUUUUUUG [C15U C49A U92C U106A] | -3.27
GACCAAUCUGCCCUUAGAGCUCGAGAACAUCUUCGGAUGCAGAGGAGGCAGGCUUCGGUGGCGCGAUAGCGACAACGUCCUCAACCUCCAAUGCAUCCCACCACAUGAUUAUGCCUGAAGAGCCUUGGUUUUUUG [C15U C72A G110U] | -2.17
GACCAAUCUGCCCUUAGAGCUCGAGAACAUCUUCGGAUGCAGAGGAGGCAGGCUUAGGUGGAGCGAUAGCGCCAACGUCCUCAACCUCCAAUGCAUCCCACCACAUGAUCAUGCCUGAAGAGCCUUGGUUUUUUG [C15U C56A C62A G110C] | -6.04
GACCAAUCUGCCCUUAGAGCUCGAGAACAUCUUCGGAUGUAGAGGAGGCAGGCUUCGGUGGCGCGAUAGCGCCAACGUCCUCAACCUCCAAUGCAUCCCACCACAUGAUGAUGACUGAAGAGCCUUGGUUUUUUG [C15U C40U C114A] | -4.3
GACCAAUCUGCCCUUAGAGCUCGAGAACAUCUUCGGAUGCAGAGGAGGCAGGUUUCGGUGUCGCGAUAGCGCCAACGUCCUCAACCUCCAAUGCAUUCCACCACAUGAUGAUGCCUGAAGAGCCUUGGUUUUUUG [C15U C53U G61U C97U] | -2.21

Variant | polymerase ribozyme fitness (log ratio)
GACCAAUCUGCCCUUAGAGCUCGAGAACAUCUUCGGAUGCAGAGGAGGCAGGCUUCGGUGGCGCGAUAGCGCUAACGUCCUCAAGCUCCAAUGCAUCCCACCACAUGAUGAUGCCUGAAGAGCCUUGGUUUUUUG [C15U C73U C85G] | -1.89
GACCAAUCUGCCCUUAGAGCUCGAGAACAUCUUCGGAUGCAGAGGAGGCAGGCUUCGGUGGCGCGAUAGCGCCAACGUCCUCAACCUCCAAUGCAUCCCACCACAUGAUGAUGCCUGAAGAGGCUUGGUUUUUUG [C15U C123G] | 0.228
GACCAAUCUGCCCUUAGAGCUCGAGAACAUCUUCGGAUGCAGAGGAGGCAGGCUUCGGUGGCGCGAUAGCGCUAACAUCCUCAACCUCCAAUGCAUCACACCACAUGAUGAUGCCUGAAGAGCCUUGGUUUUUUG [C15U C73U G77A C98A] | -8.01
GACCAAUCUGCCCUUAGAGCUCGAGAACAUCUUCGGAUGCAGAGGAGGCAGGCUUCGGUGGCGCGAUAGCGCCAACGUCCUCAACCUCCAAUGCAUCCCACCACAUGAUGAUGCAUGAAGAGCCUUGGUUUUUUG [C15U C115A] | -1.57
GACCAAUCUGCCCUUAGAGCUCGAGAACAUCUUCGGAUGCAGAGGAGGCAGGCUUCGGUGGCGCGAUAGCGUCAACGACCUCAAGCUCCAAUGCAUCACACCAGAUGAUGAUGCCUGAAGAGUCUUGCUUUUUUG [C15U C72U U78A C85G C98A C104G C123U G128C] | -6.7
GACCAAUCUGCCCUUAGAGCUCGAGAACAUCUUCGGAUGCAGAGGAGGCAGGCUUCGGUGGCGCGAUAGUGCCAACGUCCACAACCUCCAAUGCAUCCCACCACAUGAUGAUACCUAAAGAGCCUUGGUUUUUUG [C15U C70U U81A G113A G117A] | -4.22
GACCAAUCUGCCCUUAGAGCUCGAGAACAUCUUCGGAUGCAGAGGAGGCAGGCUUAGGUGGCGCGAUAGCGACAACGUGCUCAACCUCCAAUGCAUCCCACCACAUGAUGAUGCCUGAAGAGCCUUGGUUUUUUG [C15U C56A C72A C79G] | -2.96
GACCAAUCUGCCCUUAGAGCUCGAGAACAUCUUCGGAUGCAGAGGAGGCAGGCUUCGGUGGCGCGAUAGCGCCAACGUCCUCAACCUCCAAUGAAUCCCACCACAUGAUGAUGCCUGAAGAGCCUUGGUUUUUUG [C15U C94A] | -2.56
GACCAAUCUGCCCUUAGAGCUCGAGAACAUCUUCGGAUGCAGAGGAGGCAGGCUUCGGUGGGGCGAUAGCGCCAACGUCCUAAACCUCCAAUGCAUCCCACCACAUGAUGAUGCCUGAAGAGCCUUGGUUUUUUG [C15U C62G C82A] | -2.4
GACCAAUCUGCCCUUAGAGCUCGAGAACAUCUUAGGAUGCAGAGGAGGCAGGCUUCGGUCGCGCGAUAGCGCCAAUGUCCUGAACCUCCAAUGCAUCCCACCACGUGAUGAUUCCUGAAGAGCCUUGGUUUUUUG [C15U C34A G60C C76U C82G A105G G113U] | -6.4
GACCAAUCUGCCCUUAGAGCUCGAGAACAUCUUCGGAUGCAGAGGAGGCAGGCUUCGGUGGCGCGAUAGCGACAACGUCCUCAACCUCCAAUGCAUCCCACCACAUGAUGAUGCCUGAAGAGCCUUGGUUUUUUG [C15U C72A] | -1.07
GACCAAUCUGCCCUUAGAGCUCGAGAACAUCUUCGGAUGCAGAGGAGGCAGGCUUCGGUGGCGAGAUAGCGCCAACGUACUCAACCUCCAAUGCAUCACACCACAUGAUGAUGCCUUAAGAGCCUUGGUUUUUUG [C15U C64A C79A C98A G117U] | -6.93
GACCAAUCUGCCCUUAGAGCUCGAGAACAUCUUCGGAUGCAGAGGAGGCAGGCUUCGGUGGUGCGAUAGCGCCAACGUCCUCAACCUCCAAUGCAUCCCACCACAUGAUGAUGCCUGAAGAGCCUUGGUUUUUUG [C15U C62U] | -1.95
GACCAAUCUGCCCUUAGAGCUCGAGAACAUCUUCGGAUGCAGAGGAGGCAGGCUUCGGUGGAGCGAUAGCGCCAACGUCCUCAACCUCCAAUGCAUCCCACCACAUGAUGAUGCCUGAAGAGCCUUGGUUUUUUG [C15U C62A] | -2.1
GACCAAUCUGCCCUUAGAGCUCGAGAACAUCUUCGGAUGCAGAGGAGGCAGGCUUCGGUGGCGCGAUAGCGCCAAAGUCCUCAACCACCAAUGCAUCCCAGCACAUGAUGAUGCCUGAAGAGCCUUGGUUUUUUG [C15U C76A U87A C101G] | -4
GACCAAUCUGCCCUUAGAGCUCGAGAACAUCUUCGGAUGCAGAGGAGGCAGGCUUCGGUGGCGCGAUAGCGCCAACGUCCUCAACCUCCAAUGCAUGCCACCACAUGAUGAUGCCUGAAGCGCCUUGGUUUUUUG [C15U C97G A121C] | -4.09
GACCAAUCUGCCCUUAGAGCUCGAGAACAUCUUCGGAUGCAGAGGAGGCAGGCUUCGGUGGCGCGAUAGCGCCAACGUCCUCAAACUCCAAUGCAUCCCACCACAUGAUGAUGCCUGAAGAGCUUUGCUUUUGUG [C15U C85A C124U G128C U133G] | -4.88
GACCAAUCUGCCCUUAGAGCUCGAGAACAUCUUCGGAUGCAGAGGAGGCAGGCUUCGGUGGCGCGAUAGUGCCAACGUCCUCAACCUCCAAUGCAUCCCACCACAUGAUGAUGCCUGAAGAGCCUUGGUUUUUUG [C15U C70U] | -1.7
GACCAAUCUGCCCUUAGAGCUCGAGAACAUCUUCGGAUGCAGAGGAGGUAGGCUGCGGUGGCGCGAUAGCGCUAACGUCCUCAACCUCCAAUGCAUCCCACCACAUGAUGAUGCCUGAAGAGCCUUGGUUUUUUG [C15U C49U U55G C73U] | -1.56
GACCAAUCUGCCCUUAGAGCUCGAGAACAUCUUCGGAUGCAGAGGAGGCAGGCUUCGGUGGCGGGAUAGCGCCAACGUCCUCAACCUCCCAUGCAUCCCACCACAUGAUGAUGUCUGAAGAGCCUUGAUUUUUUG [C15U C64G A90C C114U G128A] | -6.98
GACCAAUCUGCCCUUAGAGCUCGAGAACAUCUUCGGAUGCAGAGGAGGCAGGCUUCGGUGGCGCGAUAGCGCAAACGACCUCAACGUCCAAUGCAUCCCACCACAUGAUGAUGCCUGAAGAGCCUUGGUUUUUUG [C15U C73A U78A C86G] | -2.43
